# Biological target: mRXFP1 (UniProt Q9HBX9)
# Assay: cell-based or functional assay
# mRXFP1, sequence (Q9HBX9 whole entry): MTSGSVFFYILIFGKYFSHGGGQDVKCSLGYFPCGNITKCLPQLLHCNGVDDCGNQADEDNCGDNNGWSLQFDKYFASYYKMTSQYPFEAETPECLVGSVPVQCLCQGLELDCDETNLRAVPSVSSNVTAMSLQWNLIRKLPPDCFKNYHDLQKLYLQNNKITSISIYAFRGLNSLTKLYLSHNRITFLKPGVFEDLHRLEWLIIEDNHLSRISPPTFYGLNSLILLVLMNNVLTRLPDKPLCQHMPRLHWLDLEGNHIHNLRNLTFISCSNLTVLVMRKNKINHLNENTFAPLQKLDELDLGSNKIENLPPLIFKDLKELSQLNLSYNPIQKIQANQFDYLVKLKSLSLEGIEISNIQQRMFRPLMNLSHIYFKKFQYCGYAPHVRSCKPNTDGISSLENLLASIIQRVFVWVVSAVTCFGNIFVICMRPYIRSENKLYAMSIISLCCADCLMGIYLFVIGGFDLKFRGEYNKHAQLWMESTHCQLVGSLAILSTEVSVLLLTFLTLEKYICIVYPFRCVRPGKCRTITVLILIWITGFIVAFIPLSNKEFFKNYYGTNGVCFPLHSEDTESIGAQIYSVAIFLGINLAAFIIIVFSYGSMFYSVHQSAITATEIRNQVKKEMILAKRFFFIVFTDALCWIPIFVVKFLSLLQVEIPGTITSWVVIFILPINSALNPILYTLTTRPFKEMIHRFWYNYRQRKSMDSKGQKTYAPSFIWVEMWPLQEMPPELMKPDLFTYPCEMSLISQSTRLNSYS
substance,measurement,value
recombinant RLX (serelaxin) (from UniProt P04090 25-53; P04090 162-185) (ligand),intracellular cAMP in human fibroblast-like synoviocytes,> 15 fold
